Consider one molecule from patent publication US20180237475A1 (BIONIZ, published 2018).

For the assay, the target named is T1, human γc-subunit (common γ subunit, CD132) (human, UniProt P31785 23-369).
T1 sequence (looked up): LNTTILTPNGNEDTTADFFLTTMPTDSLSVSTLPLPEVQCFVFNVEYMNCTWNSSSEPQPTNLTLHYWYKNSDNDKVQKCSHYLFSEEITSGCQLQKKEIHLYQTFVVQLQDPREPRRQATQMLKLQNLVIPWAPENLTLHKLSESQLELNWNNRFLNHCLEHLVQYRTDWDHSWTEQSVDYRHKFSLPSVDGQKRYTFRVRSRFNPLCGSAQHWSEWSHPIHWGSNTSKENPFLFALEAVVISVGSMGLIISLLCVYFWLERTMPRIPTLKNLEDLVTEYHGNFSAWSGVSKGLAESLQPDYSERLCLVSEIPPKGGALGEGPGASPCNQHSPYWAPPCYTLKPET
Description: cell-based or functional assay.

For the molecule IKEFLQRFIHIVQSIINTS [BNZ132-1], the “IC50 on IL-2/IL-15-induced (0.1 nM each) proliferation of ex vivo human T-lymphocytes” value was found to be 150 nM.
